Test results as given in patent US20040037820A1 (published 2004).

Molecular target: T1, VEGFR-3 full-length extracellular domain (Homo sapiens (Human), UniProt P35916 25-775)
T1 construct: the construct is not described; also called the full-length extracellular domain
T1 sequence: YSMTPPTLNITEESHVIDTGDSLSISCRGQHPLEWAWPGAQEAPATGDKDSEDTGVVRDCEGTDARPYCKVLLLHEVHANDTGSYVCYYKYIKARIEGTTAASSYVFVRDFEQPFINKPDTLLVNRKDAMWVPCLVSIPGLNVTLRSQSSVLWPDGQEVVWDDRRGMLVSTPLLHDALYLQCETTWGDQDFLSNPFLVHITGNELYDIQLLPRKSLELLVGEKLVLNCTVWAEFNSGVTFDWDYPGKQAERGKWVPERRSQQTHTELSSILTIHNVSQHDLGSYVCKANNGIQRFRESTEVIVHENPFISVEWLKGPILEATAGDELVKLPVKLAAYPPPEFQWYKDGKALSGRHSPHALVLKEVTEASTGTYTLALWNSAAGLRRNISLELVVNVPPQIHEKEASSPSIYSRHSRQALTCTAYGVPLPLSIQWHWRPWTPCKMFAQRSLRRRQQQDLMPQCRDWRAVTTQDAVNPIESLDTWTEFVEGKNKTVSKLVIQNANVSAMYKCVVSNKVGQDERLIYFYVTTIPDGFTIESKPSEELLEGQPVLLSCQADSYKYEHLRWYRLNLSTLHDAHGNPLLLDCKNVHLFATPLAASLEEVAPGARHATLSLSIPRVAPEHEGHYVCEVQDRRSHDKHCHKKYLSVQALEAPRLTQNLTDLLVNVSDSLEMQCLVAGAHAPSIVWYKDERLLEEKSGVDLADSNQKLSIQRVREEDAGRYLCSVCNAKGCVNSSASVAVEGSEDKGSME
Test: not described

B1: VEGF-D (ligand)
chain: FYDIETLKVIDEEWQRTQCSPRETCVEVASELGKSTNTFFKPPCVNVFRCGGCCNEESLICMNTSTSYISKQLFEISVPLTSVPELVPVKVANHTGCKCLPTAPRHPYS
notes: Bought protein; also called vascular endothelial growth factor D
B1: binds.
